Three molecules from article PMC7914648 (Pharmaceuticals, 2021) can be followed below.

“And” between values parts separate entries of the source, which are not always exact repeats. Equal values may be shown once.

A short description of this series: Tissue distribution of An2-PAPTP and metabolites (liver, spleen, kidneys, heart) after i.v. injection. The note with it: for metabolite in liver, 15 min: n = 5; for metabolite in heart, 15 min / metabolite in spleen, 15 min: N = 5; for metabolite in kidneys, 15 min, single animal: found in one animal out of five; for metabolite in liver, 30 min: n = 4; for metabolite in liver, 60 min: n = 6. The series is classed as in vivo, mouse. The source says: The total amount of An2-PAPTP and its metabolites, summarized in Table 3, is comprehensive of all the species having the characteristic psoralenic UV spectrum obtained by the overall extraction procedure (i.e., from organic solvent extraction and basic hydrolysis of the remaining pellet), and represents and underestimation of the real concentration in the tissue (see Section 4.7.3). This is because no recovery yield correction was applied, since it was impossible to identify most of the species extracted, and because PAPTPL extracted after high-pH hydrolysis of the pellet could come either from An2-PAPTP or from metabolites. For quantification in HPLC analysis, all the psoralenic species were assumed to have the same molar extinction coefficient as PAPTPL, an assumption justified by the near-identity observed for all the available psoralen-containing molecules.
The liver, spleen, kidneys, heart obtained from untreated mice were weighed and homogenized with PBS pH 7.4 (1 vol) with a potter. The pre-established amount of PAPTPL was added into tissue homogenates or blood and, after thorough vortexing, 5 vol of acetone were added and the sample was sonicated for 2 min. Subsequently, 5 vol of ACN containing 0.1% TFA were added and the sample was sonicated for 5 min. The sample was then centrifuged at 12,000× g for 7 min at 4 °C and the supernatant was collected, concentrated with a Hetovac VR-1, and analyzed via HPLC-UV.
Brain and liver obtained from untreated mice were weighed and homogenized with PBS pH 7.4 (1 vol) with a potter. The pre-established amount of analyte was added into tissue homogenates and, after thorough vortexing, 5 vol of acetone were added and the sample was sonicated for 2 min. Subsequently, 5 vol of ACN containing 0.1% trifluoracetic acid (TFA) were added and the sample was sonicated for 5 min. The sample was then centrifuged at 12,000× g for 7 min at 4 °C and the supernatant was collected, concentrated with a Hetovac VR-1, and analyzed via HPLC-UV.
To quantify the amount of An2-PAPTP stuck in the tissue, the pellet remaining after the procedure described above was incubated with intermittent Vortexing at 60 °C for 3 h with PBS pH 12.5/ACN 1:1 and then centrifuged at 12,000× g for 7 min. HPLC-UV analysis of the supernatant, measuring PAPTPL hydrolyzed from the tissue, thus indirectly reflects the amount of An2-PAPTPL in the pellet (Scheme 3). Quantification was as described for PAPTPL.
A stock solution of the peptide-PAPTP conjugates was prepared in DMSO. TAT-PAPTP was administered at 8 and 5 μmol/kg bw and An2-PAPTP only at 5 μmol/kg bw. The calculated quantity of drugs was diluted from the stock solution in saline or mouse plasma to a final volume of 200 μL.

[1] abbreviates: after An2-PAPTP 5 µmoles/kg bw i.v., mean ± SEM.
Setting [2] is: after An2-PAPTP 5 µmoles/kg bw i.v., liver, mean ± SEM.
The mark [3] stands for this setting: after An2-PAPTP i.v., mean ± SEM.
The mark [4] stands for this setting: after An2-PAPTP i.v., kidneys, found in one animal out of four.
Setting [5] is: after An2-PAPTP 5 µmoles/kg bw i.v., liver, 30 min, mean ± SEM.
The mark [6] stands for this setting: after An2-PAPTP i.v., mean ± SEM, N = 4.
The mark [7] stands for this setting: after An2-PAPTP i.v., mean ± SEM, N = 6.

For `CCC(C)C(NC(=O)Oc1ccc(CCCOc2ccc([P+](CCCc3ccc(OCCCCOc4c5ccoc5cc5oc(=O)ccc45)cc3)(c3ccccc3)c3ccccc3)cc2)cc1)C(=O)O.O=C([O-])C(F)(F)F` (stereo not drawn) [PAPTPL-I, (4-(3-(4-(((1-carboxy-2-methylbutyl)carbamoyl)oxy)phenyl)propoxy)phenyl) (3-(4-(4-((7-oxo-7H-furo[3,2-g]chromen-4-yl)oxy)butoxy)phenyl)propyl)diphenylphosphonium 2,2,2-trifluoroacetate], the “metabolite in liver, 15 min” value stood at 0.5 ± 0.3 nmol/g fresh tissue (after An2-PAPTP 5 µmoles/kg bw i.v. in mouse plasma, liver, HPLC-UV, mean ± SEM) and 0.4 ± 0.2 % administered dose under setting [2]. The “metabolite in heart, 15 min” value runs as follows: under setting [1], 0 nmol/g fresh tissue; under setting [3], 0 % administered dose. The “metabolite in spleen, 15 min” value is, setting by setting: under setting [1], 0.7 ± 0.3 nmol/g fresh tissue; under setting [3], 0.04 ± 0.02 % administered dose. In addition, where the note is “after An2-PAPTP i.v., kidneys”, the “metabolite in kidneys, 15 min, single animal” value (“metabolite in kidneys, 15 min” below) was 0.32 nmol/g fresh tissue and 0.02 % administered dose. For the same molecule, under setting [4], the “metabolite in kidneys, 30 min, single animal” value is 0.32 nmol/g fresh tissue and 0.03 % administered dose. For the setting “after An2-PAPTP i.v., liver, 30 min, found in one animal out of four”, the “metabolite in liver, 30 min, single animal” value is 0.2 nmol/g fresh tissue and 0.03 % administered dose.

As for `CC[C@H](C)[C@H](NC(=O)Oc1ccc(CCCOc2ccc([P+](CCCc3ccc(OCCCCOc4c5ccoc5cc5oc(=O)ccc45)cc3)(c3ccccc3)c3ccccc3)cc2)cc1)C(=O)N[C@H](C(=O)N[C@@H](Cc1ccccc1)C(=O)O)[C@@H](C)O` [PAPTPL-ITF, PAPTPL-isoleucine-threonine-phenylalanine], under setting [1], the “metabolite in heart, 15 min” value was found to be 0 nmol/g fresh tissue. In addition, under setting [2], the “metabolite in liver, 15 min” value was determined as 1.7 ± 1.0 % administered dose and the “metabolite in liver, 60 min” value is 3.9 ± 1.0 % administered dose. Also, the “metabolite in liver, 30 min” value under setting [5] was found to be 1.2 ± 0.5 % administered dose. Also, under setting [6], the “metabolite in heart, 30 min” value came out at 0.008 ± 0.007 % administered dose and the “metabolite in spleen, 30 min” value is on record as 0.02 ± 0.01 % administered dose. For the same molecule, under setting [3], the “metabolite in heart, 15 min” value is given as 0 % administered dose and the “metabolite in spleen, 15 min” value was determined as 0.13 ± 0.08 % administered dose. Also, for the setting “after An2-PAPTP i.v., kidneys”, the “metabolite in kidneys, 15 min” value is listed as 0.01 % administered dose. The “metabolite in kidneys, 30 min” value (after An2-PAPTP i.v., kidneys, mean ± SEM, N = 4) is given as 0.12 ± 0.08 % administered dose. Moreover, where the note is “after An2-PAPTP i.v., kidneys, mean ± SEM, N = 6”, the “metabolite in kidneys, 60 min” value came out at 0.02 ± 0.01 % administered dose. In addition, the “metabolite in spleen, 60 min” value under setting [7] was found to be 0.08 ± 0.01 % administered dose.

Consider `CC[C@H](C)[C@H](NC(=O)Oc1ccc(CCCOc2ccc([P+](CCCc3ccc(OCCCCOc4c5ccoc5cc5oc(=O)ccc45)cc3)(c3ccccc3)c3ccccc3)cc2)cc1)C(=O)N[C@H](C(=O)O)[C@@H](C)O` [PAPTPL-IT, PAPTPL-isoleucine- threonine], for which the “metabolite in heart, 15 min” value under setting [1] is 0 nmol/g fresh tissue. Besides, under setting [2], the “metabolite in liver, 15 min” value is 2.8 ± 1.0 % administered dose and the “metabolite in liver, 60 min” value was determined as 6.2 ± 1.6 % administered dose. Also, the “metabolite in liver, 30 min” value under setting [5] was 2.7 ± 1.8 % administered dose. Moreover, under setting [6], the “metabolite in heart, 30 min” value turned out to be 0.01 ± 0.01 % administered dose and the “metabolite in spleen, 30 min” value was 0.07 ± 0.04 % administered dose. Further, under setting [3], the “metabolite in heart, 15 min” value is 0 % administered dose and the “metabolite in spleen, 15 min” value was determined as 0.10 ± 0.04 % administered dose. For the setting “after An2-PAPTP i.v., kidneys”, the “metabolite in kidneys, 15 min” value is listed as 0.04 % administered dose. Further, under setting [4], the “metabolite in kidneys, 30 min, single animal” value is on record as 0.05 % administered dose. Where the note is “after An2-PAPTP i.v., kidneys, found in one animal out of six”, the “metabolite in kidneys, 60 min, single animal” value amounted to 0.006 % administered dose. The “metabolite in spleen, 60 min” value under setting [7] came out at 0.07 ± 0.03 % administered dose.
